Test results: the RNAGym collection of RNA variant scans (doi:10.7554/elife.80360)

B1: Twister Ribozyme (parent)
chain: AACACUGCCAAUGCCGGUCCCAAGCCCGGAUAAAAGUGGAGGGGGCGG

Variants of: B1
Test: self-cleavage, relative activity (ratio to wild type); higher = more cleavage; co-transcriptional

| Variant | self-cleavage |
| --- | --- |
| AACACUGCGAAUACCGGUCCCAAGCCCGGAUAAAAGUGGAGGGGGCGG [C9G G13A] | 1.07 |
| AACACUGCGAAUCCCGGUCCCAAGCCCGGAUAAAAGUGGAGGGGGCGG [C9G G13C] | 0.876 |
| AACACUGCGAAUUCCGGUCCCAAGCCCGGAUAAAAGUGGAGGGGGCGG [C9G G13U] | 0.933 |
| AACACUGCGAAUGCCAGUCCCAAGCCCGGAUAAAAGUGGAGGGGGCGG [C9G G16A] | 0.329 |
| AACACUGCGAAUGCCCGUCCCAAGCCCGGAUAAAAGUGGAGGGGGCGG [C9G G16C] | 0.0741 |
| AACACUGCGAAUGCCGCUCCCAAGCCCGGAUAAAAGUGGAGGGGGCGG [C9G G17C] | 0.0619 |
| AACACUGCGAAUGCCGUUCCCAAGCCCGGAUAAAAGUGGAGGGGGCGG [C9G G17U] | 0.0981 |
| AACACUGCGAAUGCCGGUCCCAACCCCGGAUAAAAGUGGAGGGGGCGG [C9G G24C] | 0.0967 |
| AACACUGCGAAUGCCGGUCCCAAUCCCGGAUAAAAGUGGAGGGGGCGG [C9G G24U] | 0.0888 |
| AACACUGCGAAUGCCGGUCCCAAGCCCGGAUAAAACUGGAGGGGGCGG [C9G G36C] | 0.148 |
| AACACUGCGAAUGCCGGUCCCAAGCCCGGAUAAAAUUGGAGGGGGCGG [C9G G36U] | 0.137 |
| AACACUGCGAAUGCCGGUCCCAAGCCCGGAUAAAAGUAGAGGGGGCGG [C9G G38A] | 0.278 |
| AACACUGCGAAUGCCGGUCCCAAGCCCGGAUAAAAGUCGAGGGGGCGG [C9G G38C] | 0.4 |
| AACACUGCGAAUGCCGGUCCCAAGCCCGGAUAAAAGUGCAGGGGGCGG [C9G G39C] | 0.132 |
| AACACUGCGAAUGCCGGUCCCAAGCCCGGAUAAAAGUGGACGGGGCGG [C9G G41C] | 0.145 |
| AACACUGCGAAUGCCGGUCCCAAGCCCGGAUAAAAGUGGAUGGGGCGG [C9G G41U] | 0.122 |
| AACACUGCGAAUGCCGGUCCCAAGCCCGGAUAAAAGUGGAGAGGGCGG [C9G G42A] | 0.12 |
| AACACUGCGAAUGCCGGUCCCAAGCCCGGAUAAAAGUGGAGCGGGCGG [C9G G42C] | 0.199 |
| AACACUGCGAAUGCCGGUCCCAAGCCCGGAUAAAAGUGGAGGAGGCGG [C9G G43A] | 0.123 |
| AACACUGCGAAUGCCGGUCCCAAGCCCGGAUAAAAGUGGAGGCGGCGG [C9G G43C] | 0.132 |
| AACACUGCGAAUGCCGGUCCCAAGCCCGGAUAAAAGUGGAGGGCGCGG [C9G G44C] | 0.395 |
| AACACUGCGAAUGCCGGUCCCAAGCCCGGAUAAAAGUGGAGGGGCCGG [C9G G45C] | 0.171 |
| AACACUGCGAAUGCCGGUCCCAAGCCCGGAUAAAAGUGGAGGGGUCGG [C9G G45U] | 0.205 |
| AACACUGCGAAUGCCGGUCCCAAGCCCGGAUAAAAGUGGAGGGGGCAG [C9G G47A] | 0.38 |
| AACACUGCGAAUGCCGGUCCCAAGCCCGGAUAAAAGUGGAGGGGGCCG [C9G G47C] | 0.186 |
| AACACUGCGAAUGCCGGUCCCAAGCCCGGAUAAAAGUGGAGGGGGCUG [C9G G47U] | 0.278 |
| AACACUGCGAAUGCCGGUCCCAAGCCCGGAUAAAAGUGGAGGGGGCGA [C9G G48A] | 0.443 |

| Variant | self-cleavage |
| --- | --- |
| AACACUGCGAAUGCCGGUCCCAAGCCCGGAUAAAAGUGGAGGGGGCGC [C9G G48C] | 0.511 |
| AACACUGCGAACGCCGGUCCCAAGCCCGGAUAAAAGUGGAGGGGGCGG [C9G U12C] | 0.812 |
| AACACUGCGAAGGCCGGUCCCAAGCCCGGAUAAAAGUGGAGGGGGCGG [C9G U12G] | 0.492 |
| AACACUGCGAAUGCCGGACCCAAGCCCGGAUAAAAGUGGAGGGGGCGG [C9G U18A] | 0.108 |
| AACACUGCGAAUGCCGGCCCCAAGCCCGGAUAAAAGUGGAGGGGGCGG [C9G U18C] | 0.0886 |
| AACACUGCGAAUGCCGGGCCCAAGCCCGGAUAAAAGUGGAGGGGGCGG [C9G U18G] | 0.0467 |
| AACACUGCGAAUGCCGGUCCCAAGCCCGGAAAAAAGUGGAGGGGGCGG [C9G U31A] | 0.648 |
| AACACUGCGAAUGCCGGUCCCAAGCCCGGAUAAAAGGGGAGGGGGCGG [C9G U37G] | 0.327 |
| AACACUGCUAAUGCCGGUCCCAAGCCCGGAUAAAAGUGGAGGGGGCGG [C9U] | 0.754 |
| AACACUGCUGAUGCCGGUCCCAAGCCCGGAUAAAAGUGGAGGGGGCGG [C9U A10G] | 0.872 |
| AACACUGCUACUGCCGGUCCCAAGCCCGGAUAAAAGUGGAGGGGGCGG [C9U A11C] | 0.736 |
| AACACUGCUAAUGCCGGUCCCACGCCCGGAUAAAAGUGGAGGGGGCGG [C9U A23C] | 0.0976 |
| AACACUGCUAAUGCCGGUCCCAAGCCCGGCUAAAAGUGGAGGGGGCGG [C9U A30C] | 0.526 |
| AACACUGCUAAUGCCGGUCCCAAGCCCGGGUAAAAGUGGAGGGGGCGG [C9U A30G] | 0.865 |
| AACACUGCUAAUGCCGGUCCCAAGCCCGGAUGAAAGUGGAGGGGGCGG [C9U A32G] | 0.729 |
| AACACUGCUAAUGCCGGUCCCAAGCCCGGAUACAAGUGGAGGGGGCGG [C9U A33C] | 0.601 |
| AACACUGCUAAUGCCGGUCCCAAGCCCGGAUAGAAGUGGAGGGGGCGG [C9U A33G] | 0.548 |
| AACACUGCUAAUGCCGGUCCCAAGCCCGGAUAUAAGUGGAGGGGGCGG [C9U A33U] | 0.751 |
| AACACUGCUAAUGCCGGUCCCAAGCCCGGAUAAGAGUGGAGGGGGCGG [C9U A34G] | 0.3 |
| AACACUGCUAAUGCCGGUCCCAAGCCCGGAUAAUAGUGGAGGGGGCGG [C9U A34U] | 0.477 |
| AACACUGCUAAUGCCGGUCCCAAGCCCGGAUAAACGUGGAGGGGGCGG [C9U A35C] | 0.636 |
| AACACUGCUAAUGCCGGUCCCAAGCCCGGAUAAAGGUGGAGGGGGCGG [C9U A35G] | 0.615 |
| AACACUGCUAAUGGCGGUCCCAAGCCCGGAUAAAAGUGGAGGGGGCGG [C9U C14G] | 0.0927 |
| AACACUGCUAAUGCAGGUCCCAAGCCCGGAUAAAAGUGGAGGGGGCGG [C9U C15A] | 0.22 |
| AACACUGCUAAUGCUGGUCCCAAGCCCGGAUAAAAGUGGAGGGGGCGG [C9U C15U] | 0.594 |
| AACACUGCUAAUGCCGGUGCCAAGCCCGGAUAAAAGUGGAGGGGGCGG [C9U C19G] | 0.101 |
| AACACUGCUAAUGCCGGUCCGAAGCCCGGAUAAAAGUGGAGGGGGCGG [C9U C21G] | 0.0888 |
